Data from the DeepSol protein solubility set.

Test: soluble on expression in E. coli; label from the status in PepcDB or PDB records

| Sequence | soluble on expression in E. coli |
| --- | --- |
| MNRSRLLLLGAEAVAQGAIDAGLSGVYAYPGTPSTEITEYIQRSAPARQSGIRSAWSANEKTAYEAALGMSYAGKRSLVCMKHVGLNVAADAFMNSAITGVNGGLVLAVADDPSMHSSQNEQDSRVYGRFAMVPVLEPASQQELYDAMFHAFELSEAVRLPVIMRMTTRLSHSRAGVELKASLEQNPLSAE | not soluble |
| MGSDKIHHHHHHMDLNEIIEKLKDILSEEKEGQKVLDRDVALALHIHPQSFACMKSRQKIPYEEILAFCAKRKISANWLFYNQAPESLIDTTNQYCYIRYFSQVHASAGGGAFNDTEACERIKLDAFWVERLGGEKEIKQIEAIAVTGDSMEPTLEDGDLIFIHRQKRQISKGGIFVIQTPHGIFVKRLQERLDGGVDILSDNSLYPTQTLERDGIEVIGRVVGALKNLE | not soluble |
| MKVLKCGVMLLSILFVSQLHVYAEENRWTWPVEGQISDYFGTRHGKHYGIDVAAPIGTPVVAIQDGKVTRSYYSSSYGNVVFIKHGEYEAVYAHLNKRYVNQGDYISKGEKIGEVGNTGESRGAHLHLELHQGRWTMAKKNAMNPLLVLSEQRNEVVSSSLYVVQKGDTLVSIARKFSMTLKEIKEKNGLQQELIYPNQQLYVK | not soluble |
| MGSDKIHHHHHHSCTSQKKKLAKMHTEDTIVKAQLIQHTKESLLSPYQHVNFQLDLTKNKTAFYGYNTGSKWELWVKTDSTITFKYDGEEMVFSSAKTTEAQDNPVVKYHSKTIVSNPSQPGLKKSITVMIRDEKYLDEIQGTYVPLSVRIEVEDHTNKTTVIYAGGGFYVVNPIIHDIWVLDSMSNVKVSAENFPLGAPRLEFHLDGGKIYGFSGCNEITATFYTIQNQIQLNSEISTLKSCVHVPLEPLFMGALANKRYYYSFEERRLKLKHRDGSILSFKKVD | not soluble |
| SMAPWGKRLAGVRGVLLDISGVLYDSGAGGGTAIAGSVEAVARLKRSRLKVRFCTNESAASRAELVGQLQRLGFDISEQEVTAPAPAACQILKERGLRPYLLIHDGVRSEFDQIDTSNPNCVVIADAGESFSYQNMNNAFQVLMELEKPVLISLGKGRYYAATSGLMLDVGPYMKALEYACGIKAEVVGKPSPEFFKSALQAIGVEAHQAVMIGDDIVGDVGGAQRCGMRALQVRTGKFRPSDEHHPEVKADGYVDNLAEAVDLLLQHADK | soluble |
| MTAKPLPIFLLPISAIRKAMEQMSFAELLIISILSKNAKDFVTLLTKPLKNMIISVDCWLSLKLVTASSELYLLYFKRKQRVRIEKSPYDKRYKKLYLPGFTEKQWIGHIVRVFSHNNGIVLSLKPLFSFRRGKIKETVELFKGLNVRKLVNHDSRIENRQLLKLFPTPNYLRLSNDYICESILVQNFETLELLEKKLSLNDILTTNCTNLEIHYQSLSDRNLNLFMKHWIRGSNPNLQSICVNFSREMRSFGAEVFKGIDHRKTIPQENFYWGKH | not soluble |
| MSLSIPREFSNAIRFLSIDATLKAKSGHPGMPMGMADIATVLWTKFLKHNPNNPHWINRDRFVLSNGHGSMLLYSLLHLTGYDLSIEDIKNFRQLHSKTPGHPEYGYTPGVETTTGPLGQGVANAVGMALGEKLLSDRYNTPDLKVIDHHTYVFLGDGCLMEGVSHEACSLAGTLGLNKLVAFWDDNNISIDGDTKGWFSDNTPERFRAYGWHVIENVDGHDFVAIEKAINEAHSQQQKPTLICCKTVIGFGSPEKAGTASVHGSPLSDQERASAAKELNWDYQAFEIPQDVYKYWDAREKGQALEANWQGQRNLFKDSPKFDEFERVLSKELPVGLESAINDYIASQLSNPVKVATRKASQMVLEVLCKNMPEMFGGSADLTGSNNTNWSGSVWLNNTQEGANYLSYGVREFGMAAIMNGLSLYGGIKPYGGTFLVFSDYSRNAIRMSALMKQPVVHVMSHDSIGLGEDGPTHQPIEHVPSLRLIPNLSVWRPADTIETMIAWKEAVKSKDTPSVMVLTRQNLMPVVQTQHQVANIARGGYLVKDNPDAKLTIVATGSEVELAVKVANEFEKKGIKLNVASIPCVEVFATQAHEYKKTVIKDDIPAVFVEMAQPDMWYKYMPKAGGEVKGIYSFGESAPAEDLFKRFGFTVENISNIVAKYV | soluble |
| MALTEQKRVRLEKLSDENGIISALAFDQRGALKRLMVKHQTEEPTVAQMEELKVLVADELTKYASSMLLDPEYGLPATKALDEKAGLLLAYEKTGYDTTSTKRLPDCLDVWSAKRIKEEGADAVKFLLYYDVDSSDELNQEKQAYIERIGSECVAEDIPFFLEILAYDEKIADAGSVEYAKVKPHKVIGAMKVFSDPRFNIDVLKVEVPVNIKYVEGFAEGEVVYTREEAAAFFKAQDEATNLPYIYLSAGVSAKLFQDTLVFAHESGANFNGVLCGRATWAGSVEAYIKDGEAAARECVRTTGFENIDELNKVLQRTATSWKERV | soluble |
| MSLPTNPFISLFGRSPIGPMQQHIAKAHECAAGLLPFFRAVIAEDWAQVEQVQQDMVRLEQEADRLKKHVRMHLPKSLFLPVPRSDLLELLSVQDKVANRAKDIAGLMLGRRMRIPLPLQGQMLAYVQRSVDASAQALRVVNELNELLETGFGGRETSLVESMVEELEAIENDTDRIQVEVRRELFRLESELPPVDVMFLYQIIEWIGDVADRAQRVGNRLEQLLAREGHHHHHH | soluble |
| MHHHHHHSSMDDPIGLFVMRPQDGEVTVGGSITFSARVAGASLLKPPVVKWFKGKWVDLSSKVGQHLQLHDSYDRASKVYLFELHITDAQPAFTGGYRCEVSTKDKFDCSNFNLTVHEAM | soluble |
| SAAEGDFLMRYRAVSNKLKKRFLRKPNVAEASEQFGQLAKELKQQDCPQYAAFCNLAMARCEQTLFNAPGEALALTDAARLFLASEQETRALRAPGFDENMQAAMNCYSFAIKVYIEMNQPVMAARLSLELGNALKEMNRPGEAIIHFQRAAELQIQMPIEALLSLWEMASCKILTRDYDGALAVLSEMQHMCQERGLQLPGTNTPVGAFMDIIAKCEISRVLLLMLLEPPPQKLLPEHAQTLERYAWESFDSHSQMACQEKDTESLKALQTELW | soluble |
| MGSDKIHHHHHHQVSGDVVKIGILNDQSGLYADLAGAGSVQAARMAIEEFGGQVLGKKIELVWADHQNKADIGAGIARAWFDREGVDAIADFSNSSVGFAVQGLANERKKITLVAAGSSDFTGKACSPFSTQWVYNSYSNGYGLARLLASRGMDSVFLLTVDYTFGHAFANDVRKAVTENGGKVLGEVRFPLNSFDLSSYLLQAQASKAKLIVTAAAGSDMTSTVKQANEFGITPGQALAAPAVFITDVNSMGLQAAQGLQFVTAFYWDRTPDSRAWAEKFFARQKAMPSMTQAGVYSAVRHYLKAVEAAKTDDAVAVAAKMRELPVRDMNIENGRVREDGQVMHDMYLVEVKKPDESRRAWDYYKVLTTVPADQAFQALADSACPLVGKQ | not soluble |
| RIETDERDSTNRASFKCPVCSSTFTDLEANQLFDPMTGTFRCTFCHTEVEEDESAMPKKDAR | soluble |
| QLRDFSSIIQTCSGNIQRISQATAQIKNLMSQLGTKQDSSKLQENLQQLQHSTNQLAKETNELLKELGSLPLPLSTSEQRQQRLQKERLMNDFSAALNNFQAVQRRVSEKEKESIAR | soluble |
| MAPFSPASSDVLVIGGGPSGTALSAELAARGLDVQQLAPHPPRPFPATYGAWLGDLPTWARGCAEQVWTDVRAYTGPQPTSLGQPYALLDNAALLRTLRGLADWTWVEGAALHAERSGAGWTVYGAGGERWQTRLVVDASGHGALVSPVRFPGGAALQTAYGVVARFRRPPVTPGSMVWMDYRTPAPELKRGEATFLYAMHLGGDRYFVEETSLIARPAPTRAELRRRLLARLSAQGTPPHATESEEWVAFPMNAQAPAPGGVLAYGAAAGRVHPVSGFQVAGALSDAPGVATAIATALCQGKDAAAAGWAALWSPERRAAREVHLLGVGALLGLERAELPHFFGTFFGLPREQWARFLHPDTDAGTLARTMLRVFAQTGGRVRLPLARAALAQPAASGRALAAAAGLKILEHHHHHH | not soluble |
| MARMKFLCDTKRCIECNGCVTACKNENDDALEWGIQRRRVVTLNDGEPGENSISVACMHCTDAPCMAVCPADCFVHTEDGIVLHNKDLCIGCGYCLFACPFGAPQFPKQAAFGERGKMDKCTFCAGGPETEPGSEEERRKYGANRIAEGKLPMCASLCSTKALLAGDAEKISDIFRQRVVERGAKGAGWTNGEDLAYDATRS | not soluble |
| MSLGELLFNRSFENTKPVSESNSWYTCYRGDVKEAKWWHSGYEEPKWYLLADGRKEEKLPLIFNNYWPSAHGKYFLQIDNRKKQIPTLLVQERIYIEKGKGYTVSGLFSSGGYLSEEKYSKESVPVTIAIYKEGDFHTPLSKTELAVNTNQFILYSSSLDATEYEGWCTYTIEVPAGGCVGIDLLSLMADDVIKGWKRESVERIKNELRPRTMRMPGGCFTSLYDWRSGIGPREERPVSYDTWWGCELLNDVGTFELVDLCEAVGAEPFFCVPVMFNNEYSAADWVDFCNNPTNAQRIAYGRTKPLNVKYWELENEPYRRFDAVTYANRCVDFAKAMKAKDPSIKIAVGNYWLFNKKFKEMLEIVGPYVDLITNRGGTPEEMRADIVILDAYNKAHGTDIKLCHTEFRAPVTRNEGNTDGLNQKDTGGEETLFNASIRWGFAMNMVEQYIAYQNMGGSFFTANYTNLSDGWGECLINTPKEGTYLNAPGVAFALLNSLDIAYPQIIEQEKENQDIVIQAAWNKRRDKLTLVVLNFSQNTQPCKIDFSQIKKSFRVRKGMKIAPQSDLSFNTLQHPEEVKVEEGHHHHHH | soluble |
| MGSDKIHHHHHHMPRYQHIARQLKTAIEQGELAPGTRLPSSRTWAQELGVSRATVENAYGELVAQGWLERRGQAGTFVSNALRFETAPPIPAVFAGESPEPKPFQMGLPALDLFPREKWARVMGRRLRTQTCFDLALGDVCGEAILRQAIVDYLRVSRSIECLPEQVFITSGYADSMRLILRTLSVPGDSMWVEDPGFPLIRPVITQEGITLAPIPVDADGLNVAAGMRDCPQGRFALVTPAHQSPLGVALSLTRRRQLLAWAANVQAWIIEDDYDSEFRYHGKPLPPLKSLDAPQRVIYAGTFSKSLFPALRTAWLVVPIKQIEHFRQQASLMPCSVPLLWQHTLADFIRDGHFWRHLKKMRQHYAQRRLWIEEALAEQGFVVTLQKGGIQLVIEVEGDDKAQVAKANQAGLAVQALSRWRVVSSGKGGILLSFTNITSAGMAKQVACQLRQAIQ | not soluble |
| MSKDTKQEDNAPTPVTTTPMALNPKTVEKTMFVNKEVLPKMKKIDPEEPGHLPLNEKFMKRWLIEGLIGKGGYGEIYLALDVVRGEEVAIKVEPKKRRGKLAKRMILEQHVLAKMQGKPHVPMIYGSGHAEKYNFIIMQILSINVGDIKKSSPNKKLSQCSVGRIIHQVIAALQDLHETGYVHRDVKPANMCFGIFPHSRHTLILLDFGLVRRYKMESGEWREPRLRAGFRGTTRYVSIRVHRRCEQSPYDDLVSVMYTAYELLAGELPWKHLEKSEEVVQLKEVMTENGINPELFQGDKSVLIDFFKQVSEMDPMKEPCYEKLIECIKVLYAPKVLTDPYEWEESSKGQDEVSEENTNSK | soluble |
| MKGIARLVTSLSRIGGRKVVSGTSTVTSSSSSSLLLSRRSLFISATNLLNSRTKDSALPSLNSSLLAQKWNFLGGQRRTMFIQTQSTPNPSSLMFYPGKPVMEVGSADFPNVRSALGSPLAKSIYSIDGVVRVFFGSDFVTVTKSDDVSWDILKPEIFAAVMDFYSSGQPLFLDSQAAAAKDTAISEDDSETVAMIKELLETRIRPAVQDDGGDIEYCGFDPESGIVKLRMQGACSGCPSSSVTLKSGIENMLMHYVSEVKGVEQEFDGEDEEGTLSGEMRVE | not soluble |
